{"source": "paper PMC2740933", "binders": {"B1": {"name": "16-mer AATT duplex (dsDNA)", "DNA 1": "CTTAATTCGAATTAAG", "DNA 2": "CTTAATTCGAATTAAG"}}, "target": "Moloney murine leukemia virus reverse transcriptase N-terminal fragment (MMLV RT) (Moloney murine leukemia virus, UniProt P03355 683-937)", "sequence (P03355 683-937)": "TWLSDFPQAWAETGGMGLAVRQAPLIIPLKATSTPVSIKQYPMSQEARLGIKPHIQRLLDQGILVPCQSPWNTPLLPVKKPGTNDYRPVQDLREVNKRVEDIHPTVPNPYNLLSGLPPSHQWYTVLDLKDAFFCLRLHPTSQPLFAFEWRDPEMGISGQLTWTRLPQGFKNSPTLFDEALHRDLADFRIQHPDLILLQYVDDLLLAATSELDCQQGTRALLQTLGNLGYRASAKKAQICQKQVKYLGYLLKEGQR", "experiment": "X-ray crystallography"}
{"binder": "B1", "values": [{"measurement": "binding result", "value": "binds"}]}
